Measured values as given in the supplement of paper PMC9170038.

Test system: K4 kissing-loop RNA reporter
Assay: apparent KD of K4 kissing-loop reporter; higher = weaker reporter binding
Conditions: Eterna round: R107
Protocol: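 RNA-MaP round R107: designed RNA switches with theophylline, tryptophan, arginine or FMN aptamers are transcribed on-chip within common flanks. They are titrated with a labelled K4 kissing-loop RNA reporter in RNA-MaP buffer (100 mM Tris pH 7.5, 80 mM KCl, 4 mM MgCl2), without ligand or with the indicated ligand. Median apparent KD per design.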

[1] = input ligand: theophylline 20 uM
[2] = input ligand: tryptophan 2.4 mM
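Note: bound reporter read as fluorescence of individual clusters on recovered sequencing chips by microscopy, with normalized cluster intensities fitted with a binding model.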

| Sequence | apparent KD of K4 kissing-loop reporter (input ligand: FMN 200 uM) [nM] | apparent KD of K4 kissing-loop reporter (input ligand: arginine 13.2 mM) [nM] | apparent KD of K4 kissing-loop reporter (input ligand: none) [nM] | apparent KD of K4 kissing-loop reporter [1] [nM] | apparent KD of K4 kissing-loop reporter [2] [nM] |
| --- | --- | --- | --- | --- | --- |
| CCGGCCCGGCCGGAUACCAGUGCGCCGCUGGGAACCGCGGGCCCAGAGUGAUGUUCGGGACACCCUUGGCAGCCGCCUGGGUCGC [#2 Same State - Theophylline B Attempt #24 (HarryS)] | 398 | 140 | 247 | 217 | 240 |
| CCGUAUGUCCACUAUUGAGUGAUGUUCAAGCGAGGACCGGUACGGCCGCCACUCGCGUUACCCACCACGUGUCGCCGCACUUACC [theeternabot_exclusion_KL_Trp_A_42] | 203 | 160 | 203 | 159 | 370 |
| CCGUGGAGUGAUGUUCCACGUACUACGGAUACCAGCUUUGCCAAAGGCCCUUGGCAGCCGCACGUUGCAGUGAUGUUGUGGCGCG [Same State Theophylline A G9] | 345 | 241 | 327 | 328 | 299 |
| CCGUGGAGUGAUGUUCCACGUUCUACGGAUACCAGCCACGCCAGCGGCCCUUGGCAGCCGCACCUUGCAGUGAUGUUGUGAGGCU [Same State Theophylline A GF 5] | 365 | 312 | 349 | 330 | 302 |
| CCUUCUCUUGAUAGUGAUGUUAUCGAGGACAAGGAUAUCAUCUCAAUGAGAAGGUGUCCUUGAUAACAUGGAGGUCUGAAACAGA [Omei KL FMN A Exc C v9] | 205 | 355 | 439 | 427 | 454 |
| CCUUUCUGUUACGAUACCAGUCUAAUAUAUUUGAUCAAUACCCUCGCCGAGUGAUGUUCGGACCCUUGGCAGCGUCUGGGACAGG [aazwmullin] | 482 | 438 | 493 | 468 | 451 |
| CGAGAAAGAGCGACUGGCGAUCUGUCUGAAGGAGCGGGUGCUAGCCCAGGUAGGUCGCAGACUUUGACGCCAGUGAUGUUGGCGG [Titidiisxe] | 210 | 175 | 222 | 134 | 178 |
| CGAGUGAUGUUCGAAGAGUUGUUAAGCGAUACCAGCUAGGAAACUGGCCCUUGGCAGCGUAAUAAAUAAAUAAAUAAAUGAUCAC [whbob_Ex_Theo_A_th62] | 351 | 414 | 369 | 456 | 322 |
| CGCAGUGAUGUUGUGAUUAACUACAGGGAAGGAGCGUGCUAGAGCACAGGUAGGUCGCCCAGUGGCCGAGUGAUGUUCGGCGGGU [Same State Arginine A GF 27] | 237 | 189 | 227 | 250 | 188 |
| CGCCAGGGUGAAGGAUAUCCGUCUGAUUGAGCGCAGUGAUGUUGCGCGAUUCGUUCAUCGCUCGGAGGAGAAGGUCAGAUAACUC [theeternabot_sameState_KL_FMN_B_3] | 127 | 121 | 121 | 121 | 112 |
| CGCCGUAAGGCGAGCGCUCCCACUCCGGAAGGAGCGCCCGAAAGGGCAGGUAGGUCGCCGGAGUGAUGUUCCGGUGGAGGGCUCG [#2 Exclusion - Arginine A Attempt #28 (Inspired by Omei)] | 353 | 261 | 380 | 267 | 330 |
| CGCGCCCAGCCGGAUACCAGUGACCCGCUGGGAACCGCGGGCCCAGAGUGAUGUUCGGGACACCCUUGGCAGCCGCCUGGGCGAC [#2 Same State - Theophylline B Attempt #8 (HarryS)] | 993 | 378 | 1130 | 525 | 509 |
| CGCGUACAGUGUUCUACGGCCGAGAGUGAUACCAGCCGUAUUUGUGGCCCUUGGCAGCGCAGAUGCAGUGAUGUUGCAUACUUGG [Same State Theophylline A GF 21] | 98.6 | 139 | 135 | 149 | 85.4 |
| CGCUUGCACGGAAGGAGCGUCCAAGCGAGACACGAGUGAUGUUCGUGAUCGACGUAAACUGGACAGGUAGGUCGCCGUGCUUAAU [Eresti] | 107 | 91 | 121 | 101 | 100 |
| CGCUUGGGUGCGGCCGCCACUAGAGCGUGACACGGGUCCCAAAAGGGUGCAGUGAUGUUGCAGCCUAGGACCGGGCACCUCUGGC [Beveesbe] | 107 | 83 | 90.4 | 70.1 | 167 |
| CGGAGUCGCGGAAGGAGCGCUCGAUAGACAAGUUGAUCGUGCCGUGGUCGAGUGAUGUUCGAGCAGGUAGGUCGCCGUCGGUCCC [Cexeatedma] | 252 | 204 | 242 | 229 | 230 |
| CGGAGUGAUGUUCCUUUUAUUAAUUAUUAACGAGGACCGGUACGGCCGCCACUCGAUUUAGCUUUUAUUUAAUGCUUGGAUGUUU [JR_SSTryptoA_Sub003] | 132 | 224 | 157 | 246 | 77 |
| CGUACGGUUUCUUUCUUUCCGUACGAGUGCCGAGGACCGGUACGGCCGCCACUCGCUACAGCCUAGUGAUGUUAGGCGAUUCUUU | 129 | 117 | 125 | 163 | 102 |
| CGUUUAUAGCAGGAUACCAGUACCCAUAAAGUACGUUAAUAGUAGAGUGAUGUUCUAAAGUACCCUUGGCAGCUUAGAGUGAGUG [ExTheophylB.Q] | 93.5 | 159 | 117 | 137 | 76.4 |
| CGUUUAUAGCAGGAUACCAGUACCGAUAAAGUACGUUAAUAGUAGAGUGAUGUUCUAAAGUACCCUUGGCAGCUUAGAGUGAGUG [ExTheophylB.P] | 95.3 | 142 | 111 | 162 | 74.5 |
| CUCCUUGGCUAAGGAUAUCGUAGUGAUGUUAUGGUCUUUGCUAAGACUUCUGAUAUUGAAUUCCGACGAGAAGGUAGAAGGACGG [theeternabot_exclusion_KL_FMN_B_18] | 817 | 690 | 835 | 745 | 626 |
